Key:
[1] = biological target: rPvLDH, lactate dehydrogenase (Plasmodium vivax, UniProt Q4PRK9 1-316); test: ELONA; conditions: protein: recombinant; chain copies: 4
[2] = biological target: rPfLDH, lactate dehydrogenase (Plasmodium falciparum, UniProt Q71T02 1-316); test: ELONA; ELONA: 500 ng immobilized protein; aptamer in HMCKN (2 mM HEPES, 0.2 mM MgCl2, 0.2 mM CaCl2, 0.2 mM KCl, 15 mM NaCl, pH 7.4), 2 h, room temperature; washes HMCKN then 25 mM TBS pH 7.6, 0.1% NP-40; conditions: protein: recombinant; chain copies: 4; label: 5'-biotin

Row | Binder | Kd [1] | binding result [1] | binding result [2]
1 | GTTCGATTGGATTGTGCCGGAAGTGCTGGCTCGAAC (ssDNA) [pL1] | 79.2 ± 12.7 nM |  | 
2 | C7 concatemer control (ssDNA) DNA: ACTTTGCACATGCTTATTCTTGTCTCCCATGCCTGTTGTGAGCCTCCTAAC |  | no binding | no binding

From publication PMC5934816, “Towards development of aptamers that specifically bind to lactate dehydrogenase of Plasmodium falciparum through epitopic targeting”
